Reference: patent US9969998B2, “Compositions of adenosine deaminase-2 (ADA2), variants thereof and methods of using same” (Halozyme, Inc., priority 2014, dated 2018)

Experiments:
[1] = molecular target: T1, ADA2 (Homo sapiens, UniProt Q9NZK5); conditions: cited from earlier work
T1 sequence (Q9NZK5 30-511): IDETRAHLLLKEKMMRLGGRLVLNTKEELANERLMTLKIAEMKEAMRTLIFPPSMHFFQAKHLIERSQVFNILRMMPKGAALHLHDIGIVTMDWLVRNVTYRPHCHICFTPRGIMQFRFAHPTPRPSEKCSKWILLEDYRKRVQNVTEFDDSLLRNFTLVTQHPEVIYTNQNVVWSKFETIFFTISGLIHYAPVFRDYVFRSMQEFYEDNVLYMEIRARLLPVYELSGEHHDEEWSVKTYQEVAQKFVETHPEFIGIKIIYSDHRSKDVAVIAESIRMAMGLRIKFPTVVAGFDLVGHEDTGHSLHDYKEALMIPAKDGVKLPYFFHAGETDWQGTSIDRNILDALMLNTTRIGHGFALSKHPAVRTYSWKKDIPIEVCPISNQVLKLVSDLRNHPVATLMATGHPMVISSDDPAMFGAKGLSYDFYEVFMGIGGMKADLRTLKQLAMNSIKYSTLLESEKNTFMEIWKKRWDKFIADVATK

[2] = molecular target: T2, ADA1 (Homo sapiens, UniProt P00813); conditions: cited from earlier work
T2 sequence (P00813 1-363): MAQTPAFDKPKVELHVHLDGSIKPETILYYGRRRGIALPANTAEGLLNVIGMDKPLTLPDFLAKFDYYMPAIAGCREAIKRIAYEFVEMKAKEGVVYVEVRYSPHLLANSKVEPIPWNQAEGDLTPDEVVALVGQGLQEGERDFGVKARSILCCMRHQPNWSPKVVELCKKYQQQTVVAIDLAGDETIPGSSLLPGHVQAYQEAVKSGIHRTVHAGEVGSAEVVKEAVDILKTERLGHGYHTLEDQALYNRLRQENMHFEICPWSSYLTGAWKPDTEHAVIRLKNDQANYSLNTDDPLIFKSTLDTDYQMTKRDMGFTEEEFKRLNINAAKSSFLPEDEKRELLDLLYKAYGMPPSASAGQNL

[3] = In vivo pharmacokinetics of PEGylated rHuADA2 combination variants (Example 14); conditions: 3 mg/kg intravenous
Excerpt: (§1) Twenty-seven (27) male BALB/c mice were divided into three (3) dosing groups, and were further divided into three (3) groups each for sampling of blood at different time points. Thus, the mice were randomized into nine (9) groups total. Mice were weighed prior to the start of the study, and randomized into the 9 groups based upon their body weights. In each sampling group, three groups of (3) mice were used for dosing each test article to prevent oversampling of the blood from the animals. For measurement of baseline ADA2 levels, a blood sample was obtained from 12 randomly chosen mice and plasma was prepared using the anti-coagulant potassium (K3) ethylene diamine tetraacetic acid (K3-EDTA). All blood was collected by submandibular venipuncture.
(§2) PEGylated ADA2 variants were prepared using the PEGylation method as described in Example 8.A, with minor modifications. Briefly, all ADA2 variants at 10 mg/mL were PEGylated with linear PEG-20K (JenKem Technology, Plano, Tex.; Cat. No. M-SCM-20K) at 1:15 molar ratio and incubated first at 37° for 30 min, then at 4° C. for 16 hours.
(§3) Approximately 200 μL of whole blood was collected at designated sampling time points from appropriate groups of mice as indicated below in Table 38 and kept on ice until plasma preparation. The initial two (2) blood samples were collected by submandibular venipuncture. The final sample was collected from a terminal bleed. Plasma was prepared by centrifuging the blood (500×g for 5 min at 4° C.), transferring the plasma to a fresh tube and immediately freezing at −80° C. until the adenosine deaminase activity assay. Adenosine deaminase activity was determined as described in Example 4.
(§4) Non-compartmental analysis (NCA) was conducted using the Phoenix WinNonlin version 6.3 (Pharsight Corp, St. Louis, Mo. 63101). The half-life, or time taken for the activity of ADA2 proteins to be reduced by half, was calculated. Also, total exposure was measured by calculating the Area Under the Concentration-time Curve (AUC). The AUC and half-life values were obtained from the unweighted average from each test article group. The following options in the Phoenix WinNonlin program were used for data analysis: (i) linear trapezoidal/linear interpolation option for AUC; (ii) best-fit slope selection option for terminal slope; and (iii) uniform weighting of the data.

[4] = tested on: MH194+PSC4 pancreatic tumor; test: Tumor growth inhibition and survival, MH194+PSC4 syngeneic tumor model; format: in vivo, C57BL/6 mice; conditions: for Tumor Growth Inhibition: vs vehicle; for Increase in MST: vs vehicle (MST 27 days)
Protocol: The murine MH194+PSC4 syngeneic tumor model was used to assess the antitumor efficacy of PEGylated a recombinant adenosine deaminase 2 (ADA2), PEGylated rHuADA2-R222Q/S265N (PEG-R222Q/S265N; PEG-R219Q/S262N by mature numbering).
The PSC4 cells are isolated and immortalized pancreatic stellate cells. To generate the PSC4 cells, pancreas from C57BL/6 mice were minced with razor blades and placed in 2 mL of a digestion buffer containing 0.05% collagenase P, 0.1% DNAse, and 0.02% Pronase in Gey's balanced salt solution (GBSS). Following two 15 min digestion incubations at 37° C. with thorough mixing after each incubation, the resulting cell suspension was filtered through a 100 μm nylon mesh, washed twice in GBSS with 0.3% bovine serum albumin (BSA), and resuspended in 10 mL GBSS/BSA. Eight mL of Histodenz (Sigma, Cat. No. D2158) was added to the cell suspension, and the entire volume was pipetted under 6 mL GBSS/BSA in order to generate a discontinuous density gradient. Following centrifugation for 20 min at 1,400 g with the brake set at zero, the desired cells were harvested from the interface between the two density volumes and washed once with PBS and once with DMEM medium supplemented with 2 mM L-glutamine, 10% fetal bovine serum, and 1% amphotericin-B (complete DMEM). Cells were immortalized using Lenti-SV40 (Capital Biosciences, Cat. No. CIP-0011) using manufacturer's protocol. The resulting cell line, designated PSC4, were maintained in tissue culture as an adherent monolayer in complete DMEM at 37° C. and 5% CO2. The MH194 mouse pancreatic carcinoma cells are derived from the KrasLSL.G12D/+p53R172H/+PdxCretg/+ genetically engineered mouse model. […]
Thirty-nine (39) male C57BL/6 mice were co-inoculated subcutaneously with 5×10^6 of a mixture of murine MH194 pancreatic cancer tumor cells and murine PSC4 pancreatic stellate cells in 0.1 mL injection volume per animal. Tumor volume was determined using digital calipers via measurement of length (L) and width (W) of the solid tumor masses. Tumor volume (TV) was calculated as: (L×W^2)/2. Tumors were allowed to grow and tumor bearing mice were staged for test article administration when the tumors were palpable and measured to be approximately 50-100 mm^3.
PEG-R222Q/S265N was prepared using similar methods as described in Example 8.A, with minor modifications to generate a preparation in which approximately 100% of the molecules were PEGylated as assessed by SDS-PAGE.
For treatment, MH194+PSC4 tumor bearing mice were randomized into five treatment groups (n=≤8); vehicle control (buffer only) or PEG-R222Q/S265N at four treatment doses. MH194+PSC4 tumor bearing mice were then injected intravenously (IV) every other day, at 0.003 mg/kg body weight, 0.03 mg/kg body weight, 0.3 mg/kg body weight and 3 mg/kg body weight of PEG-R222Q/S265N, or vehicle. […] Median survival time (MST) (in days) was calculated as the time at which 50% of the mice of the individual groups reached one of the following endpoints: (1) tumor volume reaches 2000 mm^3, (2) the animal loses >25% of its body weight, or (3) the animal appears moribund.

[5] = mouse, in vivo, iv, 3 mg/kg
Excerpt: as §1, §2, §3, §4

[6] = male BALB/c mice, WT from Example 9
[7] = 0.003 mg/kg IV every other day, day 11
[8] = 0.03 mg/kg IV every other day, day 11
[9] = 0.3 mg/kg IV every other day, day 11
[10] = 3 mg/kg IV every other day, day 11
[11] = day 11, 0.003 mg/kg IV every other day

In the case of OC[C@H]1O[C@@H](n2cnc3c2N=CNC[C@H]3O)[C@H](O)[C@@H]1O [Coformycin], the “inhibition of ADA2” value [1] is listed as “potent inhibitors” and the “inhibition of ADA1” value [2] is listed as “potent inhibitors”.

In the case of CCCCCC[C@H]([C@H](C)O)n1cnc2c(N)ncnc21 [EHNA, (+)-erythro-9-(2-hydroxy-3-nonyl)adenine], the “inhibition of ADA2” value [1] is listed as “does not inhibit ADA2” and the “inhibition of ADA1” value [2] is listed as “selectively inhibits ADA1”.

B1: PEG-R222Q/S265N: rHuADA2-R222Q/S265N (SEQ ID NO:273) PEGylated with linear PEG-20K (conjugate)
chain: IDETRAHLLLKEKMMRLGGRLVLNTKEELANERLMTLKIAEMKEAMRTLIFPPSMHFFQAKHLIERSQVFNILRMMPKGAALHLHDIGIVTMDWLVRNVTYRPHCHICFTPRGIMQFRFAHPTPRPSEKCSKWILLEDYRKRVQNVTEFDDSLLRNFTLVTQHPEVIYTNQNVVWSKFETIFFTISGLIHYAPVFRDYVFRSMQEFYEDNVLYMEIRAQLLPVYELSGEHHDEEWSVKTYQEVAQKFVETHPEFIGIKIIYNDHRSKDVAVIAESIRMAMGLRIKFPTVVAGFDLVGHEDTGHSLHDYKEALMIPAKDGVKLPYFFHAGETDWQGTSIDRNILDALMLNTTRIGHGFALSKHPAVRTYSWKKDIPIEVCPISNQVLKLVSDLRNHPVATLMATGHPMVISSDDPAMFGAKGLSYDFYEVFMGIGGMKADLRTLKQLAMNSIKYSTLLESEKNTFMEIWKKRWDKFIADVATK
modifications: linear PEG-20K; human ADA2 R219Q/S262N, mature numbering
In the case of B1, the “AUC (total exposure)” value ([3]; BALB/c mice, plasma ADA activity) is reported as 16,330 (U * h)/mL, the “Percent increase in AUC compared to WT ADA2” value ([3]; BALB/c mice, vs non-PEGylated WT rHuADA2 of Example 9) is reported as 49,661% and the “AUC higher than the non-PEGylated WT rHuADA2” value [3, 6] is reported as 49661%. For the same molecule, the “half-life longer than the non-PEGylated WT rHuADA2” value [3, 6] was 4043%, the “MST (median survival time)” value ([4]; 0.003 mg/kg IV every other day) was 46 days and the “Average Tumor Volume” value [4, 7] was 323.9 mm^3. The “Tumor Growth Inhibition” value [4, 7] was 72%, the “Increase in MST” value ([4]; 0.003 mg/kg IV every other day) was 70% and the “median survival time (MST)” value ([4]; 0.003 mg/kg dose) was 46 days. For the same molecule, the “mice that survived beyond 41 days” value ([4]; 0.003 mg/kg dose) was “Five out of eight”, the “MST (median survival time)” value ([4]; 0.03 mg/kg IV every other day) was 26 days and the “Average Tumor Volume” value [4, 8] was 680.45 mm^3. For the same molecule, the “Tumor Growth Inhibition” value [4, 8] was 21%, the “Increase in MST” value ([4]; 0.03 mg/kg IV every other day) was 0% and the “MST (median survival time)” value ([4]; 0.3 mg/kg IV every other day) was 32.5 days. For the same molecule, the Survival time ([4]; 0.3 mg/kg IV every other day) was 13 to 41 days, the “Average Tumor Volume” value [4, 9] was 700.59 mm^3 and the “Tumor Growth Inhibition” value [4, 9] was 20%. For the same molecule, the “Increase in MST” value ([4]; 0.3 mg/kg IV every other day) was 20%, the “MST (median survival time)” value ([4]; 3 mg/kg IV every other day) was 23.5 days and the “Average Tumor Volume” value [4, 10] was 678.58 mm^3. The “Tumor Growth Inhibition” value [4, 10] was 22%, the “Increase in MST” value ([4]; 3 mg/kg IV every other day) was 0% and the Average Tumor Volume [4, 11] was “approximately 324 mm^3”. For the same molecule, the “tumor growth inhibition (TGI)” value [4, 11] was “approximately 72%”, the “Half-life slow (t1/2)” value [5] was 2,790 min and the “Percent increase in t1/2 compared to WT ADA2” value [5] was 4,043%.
